# B1: CR6261 (antibody, V domains shown)
# VH: EVQLVESGAEVKKPGSSVKVSCKASGGPFRSYAISWVRQAPGQGPEWMGGIIPIFGTTKYAPKFQGRVTITADDFAGTVYMELSSLRSEDTAMYYCAKHMGYQVRETMDVWGKGTTVTVSS
# VL: QSVLTQPPSVSAAPGQKVTISCSGSSSNIGNDYVSWYQQLPGTAPKLLIYDNNKRPSGIPDRFSGSKSGTSATLGITGLQTGDEANYYCATWDRRPTAYVVFGGGTKLTVLG
# Tests used:
# Assay in all cases: ELISA, coated CR6261, P. pastoris medium
# 61A9 = details: remark: other sources report otherwise
# 58C8 = details: remark: other sources report otherwise
# 76A10 = details: remark: other sources report otherwise
# 79C2 = details: remark: other sources report otherwise
# 86B3 = details: remark: other sources report otherwise
# 91F10 = details: remark: other sources report otherwise
# 75H8 = details: remark: other sources report otherwise
# 79D5 = details: remark: other sources report otherwise
# 29C2 = details: remark: other sources report otherwise
# 78G2 = details: remark: other sources report otherwise
# 67C11 = details: remark: other sources report otherwise
# 2D9 = details: remark: other sources report otherwise
# 8D7 = details: remark: other sources report otherwise
# 86F1 = details: remark: other sources report otherwise
# 6E12 = details: remark: other sources report otherwise
# 97G10 = details: remark: other sources report otherwise
# 58A11 = details: remark: other sources report otherwise
# 80F10 = details: remark: other sources report otherwise
# 96H8 = details: remark: other sources report otherwise
# 85A7 = target: 85A7
# 86B4 = details: remark: other sources report otherwise
# 11H6 = details: remark: other sources report otherwise
# 70F6 = details: remark: other sources report otherwise
# 9C6 = details: remark: other sources report otherwise
# 88C5 = details: remark: other sources report otherwise
# 56D2 = details: remark: other sources report otherwise
# 48B11 = details: remark: other sources report otherwise
# 67C10 = details: remark: other sources report otherwise
# 850 = details: remark: other sources report otherwise
# 51G3 = details: remark: other sources report otherwise
# 7D9 = details: remark: other sources report otherwise
# 1F2 = details: remark: other sources report otherwise
# 27B10 = details: remark: other sources report otherwise
# 84B8 = details: remark: other sources report otherwise
# 12C6 = details: remark: other sources report otherwise
# 56F8 = details: remark: other sources report otherwise
# 50G10 = details: remark: other sources report otherwise
# 69G8 = details: remark: other sources report otherwise
# 79F8 = details: remark: other sources report otherwise
# 8A10 = details: remark: other sources report otherwise
# 48D11 = details: remark: other sources report otherwise
# 90A9 = details: remark: other sources report otherwise
# 9C10 = details: remark: other sources report otherwise
# 76D10 = details: remark: other sources report otherwise
# 91C4 = details: remark: other sources report otherwise
# 86G3 = details: remark: other sources report otherwise
# 96G5 = details: remark: other sources report otherwise
# 66C8 = details: remark: other sources report otherwise
binder,measurement,setting,value
B1,CR6261 binding signal,61A9,383000
same,CR6261 binding signal,58C8,277000
same,CR6261 binding signal,76A10,137000
same,CR6261 binding signal,79C2,364000
same,CR6261 binding signal,86B3,901000
same,CR6261 binding signal,91F10,14800
same,CR6261 binding signal,75H8,103000
same,CR6261 binding signal,79D5,703000
same,CR6261 binding signal,29C2,178000
same,CR6261 binding signal,78G2,56700
same,CR6261 binding signal,67C11,209000
same,CR6261 binding signal,2D9,316000
same,CR6261 binding signal,8D7,73400
same,CR6261 binding signal,86F1,159000
same,CR6261 binding signal,6E12,373000
same,CR6261 binding signal,97G10,253000
same,CR6261 binding signal,58A11,53300
same,CR6261 binding signal,80F10,90900
same,CR6261 binding signal,96H8,206000
same,CR6261 binding signal,85A7,236000
same,CR6261 binding signal,86B4,1.08e+06
same,CR6261 binding signal,11H6,427000
same,CR6261 binding signal,70F6,419000
same,CR6261 binding signal,9C6,271000
same,CR6261 binding signal,88C5,471000
same,CR6261 binding signal,56D2,146000
same,CR6261 binding signal,48B11,303000
same,CR6261 binding signal,67C10,306000
same,CR6261 binding signal,850,196000
same,CR6261 binding signal,51G3,460000
same,CR6261 binding signal,7D9,77800
same,CR6261 binding signal,1F2,149000
same,CR6261 binding signal,27B10,187000
same,CR6261 binding signal,84B8,582000
same,CR6261 binding signal,12C6,289000
same,CR6261 binding signal,56F8,235000
same,CR6261 binding signal,50G10,264000
same,CR6261 binding signal,69G8,481000
same,CR6261 binding signal,79F8,185000
same,CR6261 binding signal,8A10,360000
same,CR6261 binding signal,48D11,121000
same,CR6261 binding signal,90A9,414000
same,CR6261 binding signal,9C10,114000
same,CR6261 binding signal,76D10,114000
same,CR6261 binding signal,91C4,1.16e+06
same,CR6261 binding signal,86G3,184000
same,CR6261 binding signal,96G5,108000
same,CR6261 binding signal,66C8,185000
